The values below come from US20220135684A1 (Xencor, published 2022).

Assay [1] has as its target T1, cell-surface CD28 on human PBMCs (human, UniProt P10747 19-220).
T1 construct: whole, on cells
The assay can be described thus: flow cytometry on human PBMCs, anti-human Fc secondary. For orientation: In flow cytometry, cells or beads pass a laser one at a time.

Assay [2] deals with T2, human CD28 (human, UniProt P10747 19-152).
T2 construct: also called Cluster of Differentiation 28; Tp44
Put plainly: Octet (BLI), scFv arm in the bsAb; value told in the text. (Biolayer interferometry detects binding as a change in optical thickness at a sensor tip.)

Assay [3] deals with T2, human CD28. The assay can be described thus: Octet (BLI), scFv arm in a bsAb; value told in the text.
In assay [4] the target is T3, human PDL1 antigen (human, UniProt Q9NZQ7 19-238).
T3 construct: they are put here
The assay can be described thus: Biacore (SPR), Fab arm in a bsAb; value told in the text.

Assay [5] has as its target T3, human PDL1 antigen. Put plainly: Biacore (SPR), Fab arm in the bsAb; value told in the text. For orientation: In SPR one partner is held on a chip, and binding of the other changes the refractive index at the surface.

Residue numbers refer to the chain shown, from its start. Numbers in names are those of the source.

The Kd is the constant that tells how readily two partners part at equilibrium.

B1: XENP27181 (antibody, human IgG1, kappa, V domains shown)
VH: QVQLQESGPGLVKPSETLSLTCAVSGFSLTSYGVHWIRQPPGKGLEWLGVIWPGGGTNFNSALMSRLTISEDTSKNQVSLKLSSVTAADTAVYYCARDRAYGNYLYAMDYWGQGTLVTVSS
VL: DIQMTQSPSSLSASVGDRVTITCRASESVEYYVTSLMQWYQQKPGKAPKLLIYAASNVDSGVPSRFSGSGSGTDFTLTISSLQPEDIATYYCQQSRKVPFTFGGGTKVEIKR
notes: Bivalent mAb, IgG1 backbone with E233P/L234V/L235A/G236del/S267K ablation variant; also called HuTN228; prior art anti-CD28 mAb HuTN228; copies: 2 + 2
Regarding B1, in assay [1], the binding result is given as “binds”.

B2: XENP28428 (antibody, V domains shown)
VH: EVQLLESGGGLVQPGGSLRLSCAASGFTFSSYAMSWVRQAPGKGLEWVSTISGSGDSTYYADSVKGRFTISRDNSKNTLYLQMNSLRAEDTAVYYCAKSGPGLRQVGFDYWGQGTLVTVSS
VL: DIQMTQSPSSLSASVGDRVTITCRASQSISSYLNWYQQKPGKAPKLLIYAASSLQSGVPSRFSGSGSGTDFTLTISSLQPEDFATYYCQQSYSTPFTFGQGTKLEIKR
notes: Bivalent mAb, IgG1 backbone with E233P/L234V/L235A/G236del/S267K ablation variant; also called anti-CD28 mAb based on clone 1A7; parental αCD28 mAb 1A7; copies: 2 + 2
Turning to B2, the binding result in assay [1] is “binds”.

B3: XENP37561 (bispecific antibody)
heavy: EVQLLESGGGLVQPGGSLRLSCAASGFTFSSYDMSWVRQAPGKRLEWVSTISSGGSFTHYPDSVKGRFTISRDNSKNTLYLQMNSLRAEDTAVYYCVRRSGDWYFDVWGAGTTVTVSSASTKGPSVFPLAPSSKSTSGGTAALGCLVKDYFPEPVTVSWNSGALTSGVHTFPAVLQSSGLYSLSSVVTVPSSSLGTQTYICNVNHKPSDTKVDKKVEPKSCDKTHTCPPCPAPPVAGPSVFLFPPKPKDTLMISRTPEVTCVVVDVKHEDPEVKFNWYVDGVEVHNAKTKPREEEYNSTYRVVSVLTVLHQDWLNGKEYKCKVSNKALPAPIEKTISKAKGQPREPQVYTLPPSREEMTKNQVSLTCDVSGFYPSDIAVEWESDGQPENNYKTTPPVLDSDGSFFLYSKLTVDKSRWEQGDVFSCSVMHEALHNHYTQKSLSLSPGK
scFv-Fc: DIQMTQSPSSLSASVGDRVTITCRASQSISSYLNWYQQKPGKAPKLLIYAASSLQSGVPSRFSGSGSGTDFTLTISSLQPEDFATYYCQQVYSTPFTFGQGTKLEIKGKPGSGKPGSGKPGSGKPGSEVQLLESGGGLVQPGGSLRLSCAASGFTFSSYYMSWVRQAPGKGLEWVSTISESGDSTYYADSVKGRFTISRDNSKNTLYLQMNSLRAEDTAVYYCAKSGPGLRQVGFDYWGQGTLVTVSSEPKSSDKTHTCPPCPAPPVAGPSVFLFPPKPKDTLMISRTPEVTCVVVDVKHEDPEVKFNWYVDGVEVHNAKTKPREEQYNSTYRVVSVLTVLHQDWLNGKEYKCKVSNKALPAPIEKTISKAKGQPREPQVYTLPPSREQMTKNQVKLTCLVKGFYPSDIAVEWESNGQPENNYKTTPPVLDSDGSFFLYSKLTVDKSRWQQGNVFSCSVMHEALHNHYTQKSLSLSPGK
light: EIVLTQSPGTLSLSPGERATLSCRVSSSISSSNLHWYQQKPGQSPRPLIYGTSNLASGVPVRFSGSGSGTDYTLTISRLEPEDFAVYYCQQWSSYPLYTFGGGTKVEIKRTVAAPSVFIFPPSDEQLKSGTASVVCLLNNFYPREAKVQWKVDNALQSGNSQESVTEQDSKDSTYSLSSTLTLSKADYEKHKVYACEVTHQGLSSPVTKSFNRGEC
notes: 1+1 Fab-scFv-Fc format; scFv in VL-linker-VH orientation; also called αPDL1×αCD28 bsAb; 1A7_L1.71_H1.14
Consider B3, for which the Kd in assay [2] was 37 nM.

B4: XENP37261 (bispecific antibody)
heavy: B3 heavy
scFv-Fc: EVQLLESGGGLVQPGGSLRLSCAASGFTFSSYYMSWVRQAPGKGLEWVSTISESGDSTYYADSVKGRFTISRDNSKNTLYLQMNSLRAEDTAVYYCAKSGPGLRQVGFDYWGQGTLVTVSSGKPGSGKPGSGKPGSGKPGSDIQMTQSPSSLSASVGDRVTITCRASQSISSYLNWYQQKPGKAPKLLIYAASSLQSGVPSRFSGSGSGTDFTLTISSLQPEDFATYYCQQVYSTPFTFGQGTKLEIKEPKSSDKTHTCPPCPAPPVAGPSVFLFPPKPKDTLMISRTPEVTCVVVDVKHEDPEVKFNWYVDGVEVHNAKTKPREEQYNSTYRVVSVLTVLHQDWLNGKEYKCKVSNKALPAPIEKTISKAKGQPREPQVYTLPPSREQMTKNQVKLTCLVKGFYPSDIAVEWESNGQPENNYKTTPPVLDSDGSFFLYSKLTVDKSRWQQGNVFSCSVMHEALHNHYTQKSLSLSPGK
light: B3 light
notes: 1+1 Fab-scFv-Fc format; also called αPDL1×αCD28 bsAb; 1A7_H1.14_L1.71
For the molecule B4, the dissociation constant (Kd) in assay [3] stood at 37 nM; in assay [2], 36 nM.

B5: αPDL1×αCD28 bsAb with PDL1 binding domain 2G4_H1.12_L1.66 and CD28 binding domain 1A7_H1.14_L1.71 (bispecific antibody)
heavy: B3 heavy with S31V, G101L
scFv-Fc: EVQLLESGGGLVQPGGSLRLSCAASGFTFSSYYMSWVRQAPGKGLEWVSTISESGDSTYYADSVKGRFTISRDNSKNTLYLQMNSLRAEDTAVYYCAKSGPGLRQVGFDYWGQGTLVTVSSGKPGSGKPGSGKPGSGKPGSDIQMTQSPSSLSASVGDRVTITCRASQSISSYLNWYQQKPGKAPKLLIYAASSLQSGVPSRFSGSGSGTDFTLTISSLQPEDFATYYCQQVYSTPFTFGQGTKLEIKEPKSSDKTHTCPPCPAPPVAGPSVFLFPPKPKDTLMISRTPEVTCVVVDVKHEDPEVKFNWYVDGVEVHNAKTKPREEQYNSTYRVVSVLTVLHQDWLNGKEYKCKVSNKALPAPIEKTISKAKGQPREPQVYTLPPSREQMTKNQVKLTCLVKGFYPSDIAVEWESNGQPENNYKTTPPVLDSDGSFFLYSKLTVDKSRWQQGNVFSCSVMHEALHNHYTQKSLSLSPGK
light: B3 light with S30Q, S32T, S57T
The molecule B5 displayed a Kd in assay [4] of 0.86 nM.

B6: XENP37559 (bispecific antibody)
heavy: B3 heavy
scFv-Fc: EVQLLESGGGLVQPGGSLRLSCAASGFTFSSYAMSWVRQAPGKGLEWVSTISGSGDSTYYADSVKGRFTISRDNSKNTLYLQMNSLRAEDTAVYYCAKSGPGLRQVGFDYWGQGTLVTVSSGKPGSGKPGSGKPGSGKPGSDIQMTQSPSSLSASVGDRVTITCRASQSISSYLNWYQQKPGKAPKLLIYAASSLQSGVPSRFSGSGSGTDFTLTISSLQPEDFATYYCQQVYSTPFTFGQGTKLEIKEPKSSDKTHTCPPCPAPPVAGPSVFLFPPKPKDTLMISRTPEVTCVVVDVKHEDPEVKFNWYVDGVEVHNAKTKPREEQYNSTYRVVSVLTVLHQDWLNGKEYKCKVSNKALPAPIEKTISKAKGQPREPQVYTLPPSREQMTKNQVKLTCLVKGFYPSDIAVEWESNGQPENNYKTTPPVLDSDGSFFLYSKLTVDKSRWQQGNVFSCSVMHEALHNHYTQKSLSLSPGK
light: B3 light
notes: 1+1 Fab-scFv-Fc format; also called αPDL1×αCD28 bsAb; 1A7_H1_L1.71
The molecule B6 came in with a Kd in assay [2] of 180 nM.

B7: XENP37560 (bispecific antibody)
heavy: B3 heavy
scFv-Fc: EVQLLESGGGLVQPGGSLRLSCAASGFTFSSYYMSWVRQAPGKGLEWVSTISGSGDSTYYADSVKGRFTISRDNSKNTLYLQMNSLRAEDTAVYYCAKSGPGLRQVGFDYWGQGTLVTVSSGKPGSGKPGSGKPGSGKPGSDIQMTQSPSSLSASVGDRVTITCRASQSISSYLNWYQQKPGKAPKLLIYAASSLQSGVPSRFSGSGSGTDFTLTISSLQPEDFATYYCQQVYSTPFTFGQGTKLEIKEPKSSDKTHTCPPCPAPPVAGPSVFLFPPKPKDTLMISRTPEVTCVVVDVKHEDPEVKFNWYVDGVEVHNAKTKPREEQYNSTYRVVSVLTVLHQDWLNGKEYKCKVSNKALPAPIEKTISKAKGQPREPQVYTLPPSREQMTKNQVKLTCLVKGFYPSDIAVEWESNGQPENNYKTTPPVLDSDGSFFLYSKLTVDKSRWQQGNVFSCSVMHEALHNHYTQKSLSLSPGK
light: B3 light
notes: 1+1 Fab-scFv-Fc format; also called αPDL1×αCD28 bsAb; 1A7_H1.1_L1.71
On to B7, for which the equilibrium dissociation constant (Kd) in assay [2] was 96 nM.

B8: αPDL1×αCD28 bsAb with PDL1 binding domain 2G4_H1.12_L1.14 and CD28 binding domain 1A7_H1.14_L1.71 (bispecific antibody)
heavy: B3 heavy with S31V, G101L
scFv-Fc: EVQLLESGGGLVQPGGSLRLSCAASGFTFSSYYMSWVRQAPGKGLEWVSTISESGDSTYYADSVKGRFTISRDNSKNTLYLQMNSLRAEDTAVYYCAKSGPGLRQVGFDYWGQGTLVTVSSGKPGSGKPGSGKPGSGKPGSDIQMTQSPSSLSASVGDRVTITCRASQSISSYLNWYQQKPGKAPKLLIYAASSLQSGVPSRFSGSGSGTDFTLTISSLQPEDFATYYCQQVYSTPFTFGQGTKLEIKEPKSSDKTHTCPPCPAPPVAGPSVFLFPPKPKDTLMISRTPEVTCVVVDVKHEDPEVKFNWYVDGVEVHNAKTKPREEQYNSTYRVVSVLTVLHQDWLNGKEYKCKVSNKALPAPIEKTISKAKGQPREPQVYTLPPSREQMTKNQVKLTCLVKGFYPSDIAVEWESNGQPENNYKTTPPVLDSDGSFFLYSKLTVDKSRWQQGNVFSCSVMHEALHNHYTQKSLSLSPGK
light: B3 light with S30Q
notes: also called XENP40409 (non-Xtend analog of XENP40706)
B8: the Kd in assay [4] came out at 0.42 nM.

B9: XENP38514 (bispecific antibody)
heavy: B3 heavy with S31V, G101L
scFv-Fc: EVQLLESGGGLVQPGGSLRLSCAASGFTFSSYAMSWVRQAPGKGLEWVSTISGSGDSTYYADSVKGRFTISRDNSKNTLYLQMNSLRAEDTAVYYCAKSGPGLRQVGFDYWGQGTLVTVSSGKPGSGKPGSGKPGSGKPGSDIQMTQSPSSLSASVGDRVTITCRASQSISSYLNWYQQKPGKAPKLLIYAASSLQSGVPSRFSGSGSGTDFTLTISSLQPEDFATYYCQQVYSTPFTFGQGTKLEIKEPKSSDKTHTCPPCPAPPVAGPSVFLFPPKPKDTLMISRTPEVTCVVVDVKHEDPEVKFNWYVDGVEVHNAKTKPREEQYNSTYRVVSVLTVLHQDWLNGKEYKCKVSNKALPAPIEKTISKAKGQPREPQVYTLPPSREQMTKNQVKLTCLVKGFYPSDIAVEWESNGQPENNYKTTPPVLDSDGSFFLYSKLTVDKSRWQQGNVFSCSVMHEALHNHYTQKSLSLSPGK
light: B3 light with S30Q, S32T, N54V, S57T
In assay [5], B9 gave a Kd of 0.17 nM.

B10: XENP37412 (bispecific antibody)
heavy: B3 heavy
scFv-Fc: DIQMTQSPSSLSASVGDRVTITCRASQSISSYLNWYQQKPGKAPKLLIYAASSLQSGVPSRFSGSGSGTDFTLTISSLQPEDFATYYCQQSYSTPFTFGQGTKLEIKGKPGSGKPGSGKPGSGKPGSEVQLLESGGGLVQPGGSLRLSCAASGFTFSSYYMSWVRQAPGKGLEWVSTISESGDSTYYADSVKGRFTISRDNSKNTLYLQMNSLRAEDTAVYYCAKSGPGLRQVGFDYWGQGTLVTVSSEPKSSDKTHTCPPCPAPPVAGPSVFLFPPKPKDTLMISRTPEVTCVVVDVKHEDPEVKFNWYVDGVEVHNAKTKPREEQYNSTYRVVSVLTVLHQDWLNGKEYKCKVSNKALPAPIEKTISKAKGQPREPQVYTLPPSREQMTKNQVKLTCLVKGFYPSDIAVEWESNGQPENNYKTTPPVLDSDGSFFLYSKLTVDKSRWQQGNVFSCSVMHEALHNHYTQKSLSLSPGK
light: B3 light
notes: 1+1 Fab-scFv-Fc format; scFv in VL-linker-VH orientation; also called αPDL1×αCD28 bsAb; 1A7_L1_H1.14
B10 showed a Kd in assay [2] of 286 nM.

B11: αPDL1×αCD28 bsAb with PDL1 binding domain 2G4_H1.12_L1.68 and CD28 binding domain 1A7_H1.14_L1.71 (bispecific antibody)
heavy: B3 heavy with S31V, G101L
scFv-Fc: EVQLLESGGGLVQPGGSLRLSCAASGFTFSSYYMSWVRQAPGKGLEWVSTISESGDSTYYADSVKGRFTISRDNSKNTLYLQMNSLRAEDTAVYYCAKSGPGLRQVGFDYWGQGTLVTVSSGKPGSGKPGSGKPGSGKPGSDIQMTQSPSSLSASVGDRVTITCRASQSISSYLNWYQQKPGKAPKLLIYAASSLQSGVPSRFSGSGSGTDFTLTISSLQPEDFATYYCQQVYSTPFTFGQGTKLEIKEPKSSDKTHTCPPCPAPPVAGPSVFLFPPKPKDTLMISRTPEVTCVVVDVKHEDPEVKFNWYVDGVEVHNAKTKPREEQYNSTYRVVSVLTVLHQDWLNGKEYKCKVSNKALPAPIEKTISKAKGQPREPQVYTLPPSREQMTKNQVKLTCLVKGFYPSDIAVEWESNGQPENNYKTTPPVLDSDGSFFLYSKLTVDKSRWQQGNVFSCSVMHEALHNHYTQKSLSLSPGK
light: B3 light with S30Q, S32T
Regarding B11, the Kd in assay [4] is 0.8 nM.

B12: XENP36233 (bispecific antibody)
heavy: B3 heavy
scFv-Fc: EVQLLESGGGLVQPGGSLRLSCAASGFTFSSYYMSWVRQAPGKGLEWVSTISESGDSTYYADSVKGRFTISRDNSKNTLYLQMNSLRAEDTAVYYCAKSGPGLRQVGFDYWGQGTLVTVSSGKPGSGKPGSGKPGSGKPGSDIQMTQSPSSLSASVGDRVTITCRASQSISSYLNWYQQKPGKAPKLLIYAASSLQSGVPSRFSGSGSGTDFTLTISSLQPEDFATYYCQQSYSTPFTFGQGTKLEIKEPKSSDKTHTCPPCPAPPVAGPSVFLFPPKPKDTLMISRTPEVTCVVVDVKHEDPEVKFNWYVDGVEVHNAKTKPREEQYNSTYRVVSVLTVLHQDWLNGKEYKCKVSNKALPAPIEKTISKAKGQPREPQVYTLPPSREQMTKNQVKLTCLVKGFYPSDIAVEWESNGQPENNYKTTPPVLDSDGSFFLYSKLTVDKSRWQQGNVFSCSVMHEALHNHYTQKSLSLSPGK
light: B3 light
notes: 1+1 Fab-scFv-Fc format, heterodimeric IgG1 Fc with FcγR ablation variants; also called αPDL1×αCD28 bsAb; 2G4 H1L1 Fab × 1A7_H1.14_L1 scFv
With B12, the Kd in assay [2] was 240 nM.

B13: αPDL1×αCD28 bsAb with PDL1 binding domain 2G4_H1.12_L1.24 and CD28 binding domain 1A7_H1.14_L1.71 (bispecific antibody)
heavy: B3 heavy with S31V, G101L
scFv-Fc: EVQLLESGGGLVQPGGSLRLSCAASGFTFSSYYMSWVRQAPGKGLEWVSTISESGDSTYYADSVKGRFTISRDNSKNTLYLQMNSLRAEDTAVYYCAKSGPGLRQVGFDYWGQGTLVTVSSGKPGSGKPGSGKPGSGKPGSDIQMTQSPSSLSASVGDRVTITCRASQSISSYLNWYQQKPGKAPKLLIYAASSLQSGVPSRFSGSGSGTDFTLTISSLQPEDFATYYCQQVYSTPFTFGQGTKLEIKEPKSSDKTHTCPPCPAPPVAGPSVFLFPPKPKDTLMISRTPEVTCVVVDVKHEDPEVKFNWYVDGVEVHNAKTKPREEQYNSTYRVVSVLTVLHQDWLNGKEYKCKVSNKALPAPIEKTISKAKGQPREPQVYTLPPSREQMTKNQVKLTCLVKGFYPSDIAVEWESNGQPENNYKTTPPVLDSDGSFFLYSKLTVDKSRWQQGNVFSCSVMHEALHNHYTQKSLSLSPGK
light: B3 light with S30Q, S32T, N54V, S57T
notes: also called XENP38512; XENP40036
In assay [4], B13 returned an equilibrium dissociation constant (Kd) of 0.17 nM.
